Here are results for 17 sequences from a protein production outcome set (Wang et al. 2014).
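Further: failed if final PepcDB status was selected cloned or expressed and not failed if soluble or beyond.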

This data set can be described thus: label from the status in PepcDB records.
As to “MYFSATLFNKYYKLLGTNDEGKLNLERTSSLAYFLALDQMQKDEEEPNAVINMYKDSLSRKNFMEKVGEIFVIAKNGSFEYQANILGCINKVEGGGNSMSSKTGKNFLSTQVISASSSPNPVGYPKRPAASFILELGFEIEGHKHGIKKSDSWKNNLMKFIEFRKCGTDTFPLIVFLLRDKQLNNNLDFNNAIREGLGSAYTQAVVDYLIVNAQVPSLVWDDLQNFATAPFTIDELDTELFMQDQPETNNLQPTVQVKEFKEIEIPNDISRNRIVYGAPGTGKSYKLNKDAKEFFPDDDLYIRVTLYPNYSYSQFVGTYKPTPIYKDVEGEFYKSDMVTSIGHGKEPLIDYTFVPGPFLIQLVNALKYPKSNFVIIIEEINRANAAAVFGDVFQLLDRKDDGESEYTITFNADVTNYLRKEGIFDLQIKIPKNLYIWATMNSADQGVTPLDTAFKRRWSFEYMPIDAGEGAVSSLEMELKFLENPILWNKFRKILNQKLKELMVPEDKLIGPFFMKSYELSNPESFKNKLLLYLRDDVLRHNATKFFKHQTFSDIVTAYDQGGNIFRTISKEELVRSE”, the protein production entry is reported as “not failed”.
To “MYIIFALLAFSALILVHELGHFIVAKLNGIYVEEFAIGMGPKLFGVKVGETEYNLRILPFGGFVKMLGEEDESDDSGSLNAKTPIQRILVMGAGAFMNYVLALIIFIGLAMSSGFAENKVASVVPNSPAQEIGIEQGDEFLKIDGNKIHTTDDFRMGLALAKGNPVELEIKRGNDVLTKTVQPILNESGMYQVGISYALVEKPTLLQGIKQGFNETRSLVSQSFIALKTIVTGEANLKTDVGGPVTIIKMSGQAAKAGANTLLWFMAFLSVQLAVFNLLPFPALDGGRIFIELIQMIIRKEIPAKYIEAVNTVGFMLLMGLMVLVTIKDIIFPIL” belongs “failed”; to “MYKDEMIQLHQFLVYVLKYLENGYDIKDECEEYFSLNISPHHIHRTKAEHKYAIFVLSSAISEILARKEGNNLPPNVVNGLSELARRSRKEVVKMEARLEAK”, “failed”.
As to “MYKTQKNHIRCDKQTYRLLRQLCHFSKNLYNYALYHIRQHYFKTQEYLRYESVYHLVKESEDYRLLPSQVAQQTLISVIEAFKSFLGLLRAEKEGKVEERVSMPKYLPKDGMYQIVFPKDQFKTEGKKVRLSLGRGFAKEFGVKYLYFDLPATVLGKEIREVRIIPRFNGRWFEIEYVYEDKQQLGIFDLSRYLGVDLGLDNFAAVVDTIGTAFLIEGRFLKSVNRWYNKERARLQSIYSRQGIKCGRKLALVSRKRQHIIDNFLNQAVSLIIKHCLNNQISAVVVGEMKDIKQGIELGVVNNQNFVGIPYDKFKRKLKSKCMYYGIRYVEVDESYTSQRCSRCGHVSKSSRRYRGLYVCKKCGYVVNADINGAINIVAKVAGESVVKQITSSGCVNHPVRIRVA”, the protein production result is “failed”.
For the sequence “MYKYITILGAAGQIAQKLTATLLTYTDMHITLYGRQLKTRIPPEIIDHERVTVIEGSFQNPGKLEQAVTNAEVVFVGAMESGSDMASIVKALSRKNIRRVIGVSMAGLSGEFPVALEKWTFDNLPISYVQGERQARNVLRESNLNYTILRLTWLYNDPEKTDYELIPEGAQFNDAQVSREAVVKAIFDILHAADETPFHRTSIGVGEPGTHYDKPSFH”, the protein production result was “not failed”.
To “MYLCGSNQSRKETLENKRYNNVEEWANTLSHGAGILLGVIAGYFLLAKAAAGAEPKWAVACVTVYLFGMLSSYVSSTWYHGSRPGKLKELLRKFDHGAIYLHIAGTYTPFTLLVMRHAGGWGWGIFSFVWLSAIVGFILSFKKLKEHSNLETACYIAMGACILVAMKPLMDHLAEMGAGPAFWWLIGGGVSYIIGAVFYSLRKPYMHATFHLFCLGGSIGHIIAIWLIL” belongs “failed”; to “MYLPLLMALVVALSSCSNKMGALSSDYFTTTPQVLEAVGGKVPVTINGKFPEKYFKKNAVVEVTPVLKWEGGQVKGQPAVFQGEKVEGNDQTISYKMGGNYTMKTTFDYVPEMAKSELYLEFNAKVGKKTIAIPAVKIADGVISTSELINNTLSSANPALGDDAFQRIIKEAHNANIMFLIQQANIRSSELKTAKEFNKEVANVNDAENKKISNIEISAYASPDGGVKLNTGLAENREGNTTKLINKDLKKAKIEVPVDAKYTAQDWEGFQELVSKSNIQDKELILRVLSMYQDPEQRETEIKNISSVYKTLADEILPQLRRSRLTLNYEIIGKSDEEIANLAATDPKQLNVEEILYAATLTNDPAKKADIYTKASQQFPNDYRAFNNLGKLAYQAGDLDKAQSYVKKAESIKSAPEVNMNLGLIALAKGDKAAAESYLGKAAGAKELNETLGNLYVAQGQYERAVNAFGDTKTNSAALAQILAKDYNKAKNTLAGIATPDAYTDYLMAVLGARTNNTSMLTSSLKSAVAKNPALAKKAATDLEFAKYYTNADFMSIVK”, “failed”.
For the sequence “MYPKKQACCPAMVMPYTLHAERTRVEVIPERGGLISRWQWQGHELLYLDRERFANPQFSVRGGIPLLFPICGNLPEDAFHDNGQTYHLKQHGFARDLPWQVLDQRQHVLKLGLQDTPATRQVYPFAFHLTLTYTLAADALAIALEVANPGDIPLPFSFGLHPYFAVADKHQLQFDLPIHAMVDQKTQQPLTFSGTFDWSAAELDWACRPLTGQVARVFDLQQQYCLTLRYDTAFTTLVFWTVQGKPYYCLEPWTAPRNALNTGVDLLHVPPQKHLTLGVEIAVAPL”, the protein production entry is reported as “failed”.
With “MYQAVVFFDLDGTLMQDDKTVAASSVRAIQQLRANHVLPVIATGRNVFEVQDVMTTTGIDSIVSANGSYVAYQGQFLSAHELDKELLTDITHFANRQQNALAYYNNAGFALSHRDALTTSNYRALRQTARVAPHFYEHQHINFLLTFDPLNAAQYRQRYRGRLHFVRNNPRALDTMQWGVSKAVGIQDILTKAHLTKVPTYAFGDQLNDIEMFRMIQTPIAMGNGHPQVKQLARYVTADNMHGGIAQGLQHFDLI”, the protein production entry was “failed”.
Turning to “MYQVAICDPIHAKGIQILEAQKDIVLHDYSKCPKKELLEKLTPMDALITRSMTPITSDFLKPLTHLKSIVRAGVGVDNIDLESCSQKGIVVMNIPTANTIAAVELTMAHLINAVRSFPCANDQIKHQRLWKREDWYGTELKNKKLGIIGFGNIGSRVGIRAKAFEMEVLAYDPYIPSSKATDLGVIYTKNFEDILQCDMITIHTPKNKETINMIGAKEIERMKKGVILLNCARGGLYNEDALYEALETKKVRWLGIDVFSKEPGIHNKLLDLPNVYATPHIGANTLESQEEISKQAAQGVMESLRGSSHPHALNLPMQAFDASAKAYLNLAQKLGYFSSQIHKGVCQKIELSLCGEINQFKDALVAFMLVGVLKPVVGDKINYINAPFVAKERGIEIKVSLKESASPYKNMLSLTLNAANGTISVSGTVFEEDILKLTEIDGFHIDIEPKGKMLLFRNTDIPGVIGSVGNAFARHGINIADFRLGRNTQKEALALIIVDEEVSLEVLEELKNIPACLSVHYVVI”, the protein production result is “failed”.
As for “MYRAAIPNLFTLGNLYSGFLSIGYASLGYYKSAAILVLIGMMLDSLDGRVARLLRVDSQMGKELDSLADVVTFGAAPAVLMYYTSFSNYGIIGLYIAGLFPLFGAYRLARFNVTPSSTSMKYFTGVPITAAGGLVAFLTLFSHTIPKIVLITVFVTFAFLMVSRIRIPSLKDVPIPRYSIIITLFLVGIIITMYQTGFGNFSVFLFIAIPLYILYMLSQFIRQRPSKKANKEK”, the protein production result is recorded as “failed”.
As for “MYRDRVRLPSLLDKVMSAAEAADLIQDGMTVGMSGFTRAGEAKAVPQALAMRAKERPLRISLMTGASLGNDLDKQLTEAGVLARRMPFQVDSTLRKAINAGEVMFIDQHLSETVEQLRNHQLKLPDIAVIEAAAITEQGHIVPTTSVGNSASFAIFAKQVIVEINLAHSTNLEGLHDIYIPTYRPTRTPIPLTRVDDRIGSTAIPIPPEKIVAIVINDQPDSPSTVLPPDGETQAIANHLIDFFKREVDAGRMSNSLGPLQAGIGSIANAVMCGLIESPFENLTMYSEVLQDSTFDLIDAGKLRFASGSSITLSPRRNADVFGNLERYKDKLVLRPQEISNHPEVVRRLGIIGINTALEFDIYGNVNSTHVGGTKMMNGIGGSGDFARNAHLAIFVTKSIAKGGNISSVVPMVSHVDHTEHDVDILVTEQGLADLRGLAPRERARVIIENCVHPSYQAPLLDYFEAACAKGGHTPHLLREALAWHLNLEERGHMLAG”, the protein production result is reported as “not failed”.
Consider “MYRHDVSNEEKDIAVSVIALTAAFAIANRFRSPYGPFFILAVSFLVAVTAFLMHELAHRYVARSYGGIAYFKMWPLGLLLALITSLLGFIFAAPGAVNIGGIYRRDQIGKTSLAGPAMNIFLGILFYAISLFTLIPVAIAIFRYVAEMNFWFGFFNLLPIPPLDGYKVFSWDLYVYIVSVVIALVFVVLFVF”, for which the protein production entry is given as “failed”.
Consider “MYTENTGKHHRNGLPVWLLPLLVVISFWGVSQNIMVVDASSSVTVLPGNGGTLPLVNQLVIKQNDTALQGITNNAGDRGSLTPKNGAQRVLIHKVKDSDTITSTYGTVGTFHGQEVTAKVTISHIKVHDDSHKAPSGMKQTDGAFQIGPGFSSDTTMSNVAQFNVSYEFYYADTHAAVNIQNAFITLSSLDGPVAGTSTGFEYTAYLGAGKIYTVENSIVKQIANPLGGGQLVMAGQTARDASWPYTSSTAATFGVSGTKLEFIYGTTRVNSGNSWLQPVYNVSTITLGTPAIATPTLSATQSATDKQNRTLTYDLQQKVNVLDQDLMTKYKDWSENITIPANAKYTKGEVVNDAGQALPSTAYQVSYDEKTHQVKWHLTDAGIKSLPFKGETYHFKAQVQFSDDVDDQTKVTATGQTAIDKQTKTSNTVTNTIDNQATITVHHYMTDSTDKVAPDETVKVGYGKAYDVTKQVKTITGYKRNATLDEHTRGTASKTTKEAVMYYDPLPYNIHVNYLLTDGQKLDELDVTGLYGDTYTTEATDFEDLYTVDTDRLPTNAQGTVTEKPTTVNYYYQPTTGQWVDVGNQSSVLVRQDTKHNVRSVSQIYANDSGFTVKYNQDAAQVAIAASDTNGTQDNSLVFDYNSKYTFELSKNETVTFKVDDQGQVTATRVLGAEQTVTTFDKSGQLKTVTTVTNANGTKSQQTNTVDGLKSMVTGEQYDLGLLNGLKVTAQKEINPSQAATTESKTTTDTSQSGSNQSTSTTATDQTETNESTAGSSTNATNASSSVDASSANSQGDTEATSQSGTSASADSKTDSSVASSTSQTTDGKTDGETTNTGDTTTGTTTDSGLGFKSPFTEDQNTSSALGSAQTSSSLNSDTSAAVQALIAEPNSTPVVLGEDASFEEGVPVNDPVFSNDEGVSPNNNPSSAATPLAQATNTRARLTQNGKLLYEGTLKADQGEQNLYVSPDTTVEVDGGDDGDGFYLDTYDGDKGMAYTLGSGYAWAAENNDVTAAPASSATTSSESAASESNTNSSDSSRTASSAVDHSTSSASTSDASQSSHSTSSGESSHPESSSGSSTTSDSADADKQAAARSSQTQSNSVNGSSQAVSSSTVTSQSSVPTKANTKQASSTPTTKANRATVAAATSSTAPRQSRATTASASVPSVTSASAVAASRDKQQSAFKKQHPILNQILPKTNSAVATWLVWLGVGLLLLTVAITMVIKKRGRD”, for which the protein production result is on record as “failed”.
For “MYTITDIAPTDAEFIALIAALDAWQETLYPAESNHLLDLSQLPPQTVIALAIRSPQGEAVGCGAIVLSEEGFGEMKRVYIDPQHRGQQLGEKLLAALEAKARQRDCHTLRLETGIHQHAAIALYTRNGYQTRCAFAPYQPDPLSVFMEKP”, the protein production result is on record as “failed”.
In the case of “MYTPVSKSTKSNKNRSSLDKILDAKKPVNLLILGTDTGAEGRSVKNYHGLTDLMMFVTVNPSKKQTRVTTIARDSKVNLPDYPEVSPIKLNSAYSLGGVSETIKTLDKYYSVPIDGYVLVNWASTMKIITKMGGVDVISPLTFDNMGYSFKKGQMYHISGKKALAFVQLRHGDPRQDYGRQERERLVMMAAIKKSVSYKTILNSSFMQSLGDSMQTDLSLNDMIKLAMNYQGVTDNVKSDYAQGKSSSVNNQRFGNMEVEIMSTKERQRISNNIRQTLGIKNVDVYKEDNLEHHHHHH”, the protein production result is “not failed”.
Consider “MYTYDSDKTQDGEENLKCSLEKLAKKIIQNAGDTNGNNSTPNSNDDFAQVFGRERPGRVRCVGLGPTPSSFIQNRTTTTLSKEQEVLSLNNRVRELEDKLVKMSDLEDKVDKMNEVIYISTCRRQQQLHYMTSTMDRRRWLQVEGNDFK”, for which the protein production result was “failed”.
